Results reported in US20240261333A1, “NOVEL TARGETS FOR ENHANCING ANTI-TUMOR IMMUNITY” (THE BROAD INSTITUTE, INC., priority 2021, published 2024).

Biological target: T1, B3GNT2 (Homo sapiens, UniProt Q9NY97)
T1 construct: The respective ORFs of candidate genes [CD274 (NM_014143), MCL1 (NM_021960), JUNB (NM_002229), and B3GNT2 (NM_006577)] were synthesized; expressed in transfected cells; host or cells: A375 melanoma cells (lentiviral ORF overexpression)
T1 sequence (Q9NY97 1-397): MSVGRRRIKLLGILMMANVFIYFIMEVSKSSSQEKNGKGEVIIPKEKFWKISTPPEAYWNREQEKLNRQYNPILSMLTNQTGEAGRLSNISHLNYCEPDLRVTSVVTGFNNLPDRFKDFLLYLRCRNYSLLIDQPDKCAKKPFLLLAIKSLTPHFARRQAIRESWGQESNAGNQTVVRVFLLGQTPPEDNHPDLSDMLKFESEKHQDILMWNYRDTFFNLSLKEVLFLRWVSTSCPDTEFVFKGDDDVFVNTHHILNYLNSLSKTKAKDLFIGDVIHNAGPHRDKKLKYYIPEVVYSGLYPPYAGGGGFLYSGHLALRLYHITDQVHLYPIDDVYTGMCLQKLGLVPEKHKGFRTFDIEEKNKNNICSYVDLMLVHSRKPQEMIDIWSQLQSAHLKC
Test: Co-IP of FLAG-tagged B3GNT2 followed by mass spectrometry
Assay type: cell-based
Design: C-term IgG / C-term flag: unit not given here
Experimental: Cells were plated in 10-cm cell culture dishes and grown to 60-80% confluency. For each condition, two biological replicates were harvested for co-IP. Cells were washed with PBS and 4 mL of lysis buffer (20 mM HEPES, 1% Triton X-100, 150 mM NaCl, 1 mM EDTA, and 10% glycerol) containing protease inhibitor cocktail was added. Cells were scraped and lysate was incubated at 4° C. under rotary agitation for 1 h. Lysate was centrifuged at 14,000×g for 10 min at 4° C. Supernatant was transferred to a new tube and an aliquot was taken as the input. […] For Western blots, 10 μg/mL Chicken Anti-FLAG (Aves labs ET-DY100) and IgY control (R&D Systems AB-101-C) antibodies were biotinylated (Thermo Fisher Scientific 90407) and added to the respective conditions. Lysates with antibodies were incubated at 4° C. under rotary agitation overnight. For each mL of lysate, 50 μL of Pierce Protein A/G Magnetic Beads (Mass spectrometry; Thermo Fisher Scientific 88803) or Pierce Streptavidin Magnetic Beads (Western blot; Thermo Fisher Scientific 88817) was washed twice with lysis buffer. Lysates with antibodies were added to the beads and incubated at 4° C. under rotary agitation for 4 h. Beads were washed with lysis buffer 3 times and resuspended in lysis buffer for storage. […] This solution was subjected to solid phase extraction to concentrate the peptides and remove unwanted reagents followed by injection onto a Shimadzu HPLC with fraction collector. Eight fractions were collected and after concentration were injected on a Waters NanoAcquity HPLC equipped with a self-packed Aeris 3 μm C18 analytical column 0.075 mm by 20 cm, (Phenomenex). Peptides were eluted using standard reverse-phase gradients. The effluent from the column was analyzed using a Thermo Orbitrap Elite mass spectrometer (nanospray configuration) operated in a data dependent manner for 54 minutes. […] Scaffold Q+S (Proteome Software) was used to provide consensus reports for the identified proteins.

[1] = Co-IP with FLAG antibody, C-terminally FLAG-tagged B3GNT2, mass spectrometry count, unit not given
[2] = Co-IP with FLAG antibody, N-terminally FLAG-tagged B3GNT2, mass spectrometry count, unit not given
[3] = Co-IP with IgG control antibody, C-terminally FLAG-tagged B3GNT2, mass spectrometry count, unit not given
[4] = Co-IP with IgG control antibody, N-terminally FLAG-tagged B3GNT2, mass spectrometry count, unit not given

B1: RARS (protein)
chain: MDVLVSECSARLLQQEEEIKSLTAEIDRLKNCGCLGASPNLEQLQEENLKLKYRLNILRKSLQAERNKPTKNMINIISRLQEVFGHAIKAAYPDLENPPLLVTPSQQAKFGDYQCNSAMGISQMLKTKEQKVNPREIAENITKHLPDNECIEKVEIAGPGFINVHLRKDFVSEQLTSLLVNGVQLPALGENKKVIVDFSSPNIAKEMHVGHLRSTIIGESISRLFEFAGYDVLRLNHVGDWGTQFGMLIAHLQDKFPDYLTVSPPIGDLQVFYKESKKRFDTEEEFKKRAYQCVVLLQGKNPDITKAWKLICDVSRQELNKIYDALDVSLIERGESFYQDRMNDIVKEFEDRGFVQVDDGRKIVFVPGCSIPLTIVKSDGGYTYDTSDLAAIKQRLFEEKADMIIYVVDNGQSVHFQTIFAAAQMIGWYDPKVTRVFHAGFGVVLGEDKKKFKTRSGETVRLMDLLGEGLKRSMDKLKEKERDKVLTAEELNAAQTSVAYGCIKYADLSHNRLNDYIFSFDKMLDDRGNTAAYLLYAFTRIRSIARLANIDEEMLQKAARETKILLDHEKEWKLGRCILRFPEILQKILDDLFLHTLCDYIYELATAFTEFYDSCYCVEKDRQTGKILKVNMWRMLLCEAVAAVMAKGFDILGIKPVQRM
C-term flag [1]: 2
N-term FLAG [2]: 0
C-term IgG [3]: 0
N-term IgG [4]: 0

B2: DNAJB11 (protein)
chain: GRDFYKILGVPRSASIKDIKKAYRKLALQLHPDRNPDDPQAQEKFQDLGAAYEVLSDSEKRKQYDTYGEEGLKDGHQSSHGDIFSHFFGDFGFMFGGTPRQQDRNIPRGSDIIVDLEVTLEEVYAGNFVEVVRNKPVARQAPGKRKCNCRQEMRTTQLGPGRFQMTQEVVCDECPNVKLVNEERTLEVEIEPGVRDGMEYPFIGEGEPHVDGEPGDLRFRIKVVKHPIFERRGDDLYTNVTISLVESLVGFEMDITHLDGHKVHISRDKITRPGAKLWKKGEGLPNFDNNNIKGSLIITFDVDFPKEQLTEEAREGIKQLLKQGSVQKVYNGLQGY
C-term flag [1]: 4
N-term FLAG [2]: 3
C-term IgG [3]: 0
N-term IgG [4]: 0

B3: HNRNPA1 (protein)
chain: SKSESPKEPEQLRKLFIGGLSFETTDESLRSHFEQWGTLTDCVVMRDPNTKRSRGFGFVTYATVEEVDAAMNARPHKVDGRVVEPKRAVSREDSQRPGAHLTVKKIFVGGIKEDTEEHHLRDYFEQYGKIEVIEIMTDRGSGKKRGFAFVTFDDHDSVDKIVIQKYHTVNGHNCEVRKALSKQEMASASSSQRGRSGSGNFGGGRGGGFGGNDNFGRGGNFSGRGGFGGSRGGGGYGGSGDGYNGFGNDGGYGGGGPGYSGGSRGYGSGGQGYGNQGSGYGGSGSYDSYNNGGGGGFGGGSGSNFGGGGSYNDFGNYNNQSSNFGPMKGGNFGGRSSGPYGGGGQYFAKPRNQGGYGGSSSSSSYGSGRRF
C-term flag [1]: 9
N-term FLAG [2]: 7
C-term IgG [3]: 4
N-term IgG [4]: 4

B4: SDF4 (protein)
chain: RPANHSSTRERVANREENEILPPDHLNGVKLEMDGHLNRGFHQEVFLGKDLGGFDEDAEPRRSRRKLMVIFSKVDVNTDRKISAKEMQRWIMEKTAEHFQEAMEESKTHFRAVDPDGDGHVSWDEYKVKFLASKGHSEKEVADAIRLNEELKVDEETQEVLENLKDRWYQADSPPADLLLTEEEFLSFLHPEHSRGMLRFMVKEIVRDLDQDGDKQLSVPEFISLPVGTVENQQGQDIDDNWVKDRKKEFEELIDSNHDGIVTAEELESYMDPMNEYNALNEAKQMIAVADENQNHHLEPEEVLKYSEFFTGSKLVDYARSVHEEF
C-term flag [1]: 7
N-term FLAG [2]: 0
C-term IgG [3]: 0
N-term IgG [4]: 0

B5: DSTN (protein)
chain: ASGVQVADEVCRIFYDMKVRKCSTPEEIKKRKKAVIFCLSADKKCIIVEEGKEILVGDVGVTITDPFKHFVGMLPEKDCRYALYDASFETKESRKEELMFFLWAPELAPLKSKMIYASSKDAIKKKFQGIKHECQANGPEDLNRACIAEKLGGSLIVAFEGCPV
C-term flag [1]: 3
N-term FLAG [2]: 0
C-term IgG [3]: 0
N-term IgG [4]: 0

B6: SPRR2E (protein)
chain: MSYQQQQCKQPCQPPPVCPTPKCPEPCPPPKCPEPCPPPKCPQPCPPQQCQQKCPPVTPSPPCQPKCPPKSK
C-term flag [1]: 0
N-term FLAG [2]: 16
C-term IgG [3]: 5
N-term IgG [4]: 3

B7: SSR1 (protein)
chain: VLFRGGPRGLLAVAQDLTEDEETVEDSIIEDEDDEAEVEEDEPTDLVEDKEEEDVSGEPEASPSADTTILFVKGEDFPANNIVKFLVGFTNKGTEDFIVESLDASFRYPQDYQFYIQNFTALPLNTVVPPQRQATFEYSFIPAEPMGGRPFGLVINLNYKDLNGNVFQDAVFNQTVTVIEREDGLDGETIFMYMFLAGLGLLVIVGLHQLLESRKRKRPIQKVEMGTSSQNDVDMSWIPQETLNQINKASPRRLPRKRAQKRSVGSDE
C-term flag [1]: 4
N-term FLAG [2]: 3
C-term IgG [3]: 0
N-term IgG [4]: 0

B8: ATXN2L (protein)
chain: MLKPQPLQQPSQPQQPPPTQQAVARRPPGGTSPPNGGLPGPLATSAAPPGPPAAASPCLGPVAAAGSGLRRGAEGILAPQPPPPQQHQERPGAAAIGSARGQSTGKGPPQSPVFEGVYNNSRMLHFLTAVVGSTCDVKVKNGTTYEGIFKTLSSKFELAVDAVHRKASEPAGGPRREDIVDTMVFKPSDVMLVHFRNVDFNYATKDKFTDSAIAMNSKVNGEHKEKVLQRWEGGDSNSDDYDLESDMSNGWDPNEMFKFNEENYGVKTTYDSSLSSYTVPLEKDNSEEFRQRELRAAQLAREIESSPQYRLRIAMENDDGRTEEEKHSAVQRQGSGRESPSLASREGKYIPLPQRVREGPRGGVRCSSSRGGRPGLSSLPPRGPHHLDNSSPGPGSEARGINGGPSRMSPKAQRPLRGAKTLSSPSNRPSGETSVPPPPAVGRMYPPRSPKSAAPAPISASCPEPPIGSAVPTSSASIPVTSSVSDPGVGSISPASPKISLAPTDVKELSTKEPGRTLEPQELARIAGKVPGLQNEQKRFQLEELRKFGAQFKLQPSSSPENSLDPFPPRILKEEPKGKEKEVDGLLTSEPMGSPVSSKTESVSDKEDKPPLAPSGGTEGPEQPPPPCPSQTGSPPVGLIKGEDKDEGPVAEQVKKSTLNPNAKEFNPTKPLLSVNKSTSTPTSPGPRTHSTPSIPVLTAGQSGLYSPQYISYIPQIHMGPAVQAPQMYPYPVSNSVPGQQGKYRGAKGSLPPQRSDQHQPASAPPMMQAAAAAGPPLVAATPYSSYIPYNPQQFPGQPAMMQPMAHYPSQPVFAPMLQSNPRMLTSGSHPQAIVSSSTPQYPSAEQPTPQALYATVHQSYPHHATQLHAHQPQPATTPTGSQPQSQHAAPSPVQHQAGQAPHLGSGQPQQNLYHPGALTGTPPSLPPGPSAQSPQSSFPQPAAVYAIHHQQLPHGFTNMAHVTQAHVQTGITAAPPPHPGAPHPPQVMLLHPPQSHGGPPQGAVPQSGVPALSASTPSPYPYIGHPQGEQPGQAPGFPGGADDRIREFSLAGGIWHGRAEGLQVGQDARVLGGE
C-term flag (Co-IP followed by mass spectrometry of B3GNT2, C-term tag, FLAG pull-down): 5
C-term IgG (Co-IP followed by mass spectrometry of B3GNT2, C-term tag, IgG pull-down): 2
N-term FLAG (Co-IP followed by mass spectrometry of B3GNT2, N-term tag, FLAG pull-down): 5
N-term IgG (Co-IP followed by mass spectrometry of B3GNT2, N-term tag, IgG pull-down): 3
